Source: US20230348607A1 (EXELIXIS, published 2023)

Key:
human AMHR-II-ECD-Fc = biological target: T1, human AMHR-II-ECD-Fc (human, UniProt Q16671 18-149); test: ELISA, coated human AMHR-II-ECD-Fc, detection with HRP anti-human F(ab')2
T1 construct: Bought reagent (R&D Systems); Only its extracellular domain stood in the assay; also called extracellular domain of human AMHR-II receptor; not shown: Fc part of the bought fusion protein (R&D Systems)
Procedure: (§1) The binding capacity of the anti-AMHR-II 4A3 antibody was evaluated by ELISA. ELISA plates (96 wells, Maxisorp, Nunc) were coated overnight at +4° C. with 100 ng per well of human AMHR-II-ECD-Fc, rat AMHR-II-ECD-Fc or human ALK3-ECD-Fc (R&D Systems).
(§2) Coated plates were blocked with PBS-BSA 2% for 1 hour at 37° C. and washed three times with PBS-Tween20 0.05%. The anti-AMHR-II 4A3 antibody was serially diluted in PBST-BSA1% and incubated for 1 hour at 37° C. The bound anti-AMHR-II 4A3 was detected by adding HRP-conjugated F(ab′)2 goat anti-human F(ab′)2 fragment specific (Interchim) diluted at 1:10000 and incubated for one hour at 37° C. Revelation was done with TMB (Sigma) and the reaction was stopped by adding H₂SO₄ 1N (v:v). Absorbances were measured at 450 nm and binding data curves were analysed using GraphPad Prism 8 software.

[1] = biological target: T2, human AMHR-II receptor expressed at the surface of the COV434-AMHR-II transfected cell line (human, UniProt Q16671 18-573); test: flow cytometry on COV434 AMHR-II transfected cells, 67 nM to 0.2 pM, one-site specific binding fit
T2 sequence: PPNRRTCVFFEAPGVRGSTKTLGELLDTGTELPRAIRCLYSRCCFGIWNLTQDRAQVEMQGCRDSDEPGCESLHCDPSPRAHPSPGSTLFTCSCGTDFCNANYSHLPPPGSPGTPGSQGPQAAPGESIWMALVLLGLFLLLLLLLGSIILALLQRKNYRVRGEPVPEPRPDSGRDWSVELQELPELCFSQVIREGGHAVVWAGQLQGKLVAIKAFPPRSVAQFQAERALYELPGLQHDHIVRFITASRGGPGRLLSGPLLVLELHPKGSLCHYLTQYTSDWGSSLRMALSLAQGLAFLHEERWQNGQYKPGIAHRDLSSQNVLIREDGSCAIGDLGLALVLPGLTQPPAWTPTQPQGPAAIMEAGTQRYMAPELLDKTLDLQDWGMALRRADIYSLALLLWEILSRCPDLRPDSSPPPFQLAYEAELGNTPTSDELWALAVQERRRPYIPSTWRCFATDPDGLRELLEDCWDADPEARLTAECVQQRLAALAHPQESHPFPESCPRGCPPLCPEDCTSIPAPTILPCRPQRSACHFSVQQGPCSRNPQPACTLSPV
Procedure: For Fluorescent-activated cell sorting (FACS) analysis, 3×10⁵ cells were incubated for 1 hour at 4° C. with 10 μg/ml of 4A3 antibody (FIG. 2A) or with a range of 4A3 concentrations (from 67 nM to 0.2 pM, FIG. 2B). After washes, Phycoerythrin-conjugated anti-human IgG antibody (1:200, Interchim) was added for 1 hour at 4° C. FACS analysis of the resuspended cells was done on a BD Accuri™ C6 flow cytometer (BD Bioscience). Binding affinity were determined using GraphPad Prism 8 with “one-site specific binding” fit equation.

human ALK3-ECD-Fc = biological target: T3, human ALK3-ECD-Fc (human, UniProt P36894 24-152); test: ELISA, 100 ng per well coated Fc fusion, serially diluted 4A3
T3 construct: extracellular domain; Bought reagent (R&D Systems), used as negative control; also called human ALK3 receptor; negative control; not shown: Fc part of the bought fusion protein (R&D Systems)
Procedure: as §1, §2

rat AMHR-II-ECD-Fc = biological target: T4, rat AMHR-II-ECD-Fc (rat, UniProt Q62893 18-144); test: as above
T4 construct: extracellular domain; Bought reagent (R&D Systems); also called rat AMHR-II receptor; not shown: Fc part of the bought fusion protein (R&D Systems)
T4 sequence (looked up): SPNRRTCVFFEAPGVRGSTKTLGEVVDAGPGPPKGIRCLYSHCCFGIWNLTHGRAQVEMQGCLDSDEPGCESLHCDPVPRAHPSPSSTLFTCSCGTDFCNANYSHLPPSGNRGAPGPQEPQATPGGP
Procedure: as §1, §2

T3 sequence (P36894 24-152): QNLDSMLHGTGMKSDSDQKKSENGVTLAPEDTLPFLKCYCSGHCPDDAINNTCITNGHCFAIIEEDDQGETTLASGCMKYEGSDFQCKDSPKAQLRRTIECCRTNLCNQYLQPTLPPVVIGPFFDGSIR

B1: anti-AMHR-II 4A3 antibody (antibody, human IgG1, lambda, V domains shown)
VH: EVQLVESGGSLVKPGGSLRLSCAASGFTFSNNAMNWVRQAPGKGLEWISYISGSSRYISYADFVKGRFTISRDNAKNSLYLQMNSLRAEDTAVYYCVRSSDDYFGGGMDVWGRGTLVTVSS
VL: QSVLTQPASVSGSPGQSITISCAGTSSDVGGDNDVSWYQQHPGKAPKLMIYYDSYRPSGVSNRFSGSKSGNTASLTISGLQAEDEADYYCSSSTYYSTRVFGGGTKLTVLG
notes: The tie is therefore indirect; 4A3 was detected with anti-human F(ab')2 and anti-human IgG secondary reagents; also called antibody 4A3; 4A3 antagonist antibody
Human AMHR-II-ECD-Fc
  EC50: 6 nM
[1]
  Kd: 2.1 nM
Human ALK3-ECD-Fc
  binding result: no binding
Rat AMHR-II-ECD-Fc
  binding result: no binding
